# In IntAct's records for PubMed 31515488:
# B1: Zyxin (Homo sapiens), Q15942 (parent)
# chain: MAAPRPSPAISVSVSAPAFYAPQKKFGPVVAPKPKVNPFRPGDSEPPPAPGAQRAQMGRVGEIPPPPPEDFPLPPPPLAGDGDDAEGALGGAFPPPPPPIEESFPPAPLEEEIFPSPPPPPEEEGGPEAPIPPPPQPREKVSSIDLEIDSLSSLLDDMTKNDPFKARVSSGYVPPPVATPFSSKSSTKPAAGGTAPLPPWKSPSSSQPLPQVPAPAQSQTQFHVQPQPQPKPQVQLHVQSQTQPVSLANTQPRGPPASSPAPAPKFSPVTPKFTPVASKFSPGAPGGSGSQPNQKLGHPEALSAGTGSPQPPSFTYAQQREKPRVQEKQHPVPPPAQNQNQVRSPGAPGPLTLKEVEELEQLTQQLMQDMEHPQRQNVAVNELCGRCHQPLARAQPAVRALGQLFHIACFTCHQCAQQLQGQQFYSLEGAPYCEGCYTDTLEKCNTCGEPITDRMLRATGKAYHPHCFTCVVCARPLEGTSFIVDQANRPHCVPDYHKQYAPRCSVCSEPIMPEPGRDETVRVVALDKNFHMKCYKCEDCGKPLSIEADDNGCFPLDGHVLCRKCHTARAQT
# B2: Serine/threonine-protein phosphatase 6 regulatory ankyrin repeat subunit B (Homo sapiens), Q8N8A2 (parent)
# chain: MAVLKLTDQPPLVQAIFSGDPEEIRMLIHKTEDVNTLDSEKRTPLHVAAFLGDAEIIELLILSGARVNAKDNMWLTPLHRAVASRSEEAVQVLIKHSADVNARDKNWQTPLHVAAANKAVKCAEVIIPLLSSVNVSDRGGRTALHHAALNGHVEMVNLLLAKGANINAFDKKDRRALHWAAYMGHLDVVALLINHGAEVTCKDKKGYTPLHAAASNGQINVVKHLLNLGVEIDEINVYGNTALHIACYNGQDAVVNELIDYGANVNQPNNNGFTPLHFAAASTHGALCLELLVNNGADVNIQSKDGKSPLHMTAVHGRFTRSQTLIQNGGEIDCVDKDGNTPLHVAARYGHELLINTLITSGADTAKCGIHSMFPLHLAALNAHSDCCRKLLSSGFEIDTPDKFGRTCLHAAAAGGNVECIKLLQSSGADFHKKDKCGRTPLHYAAANCHFHCIETLVTTGANVNETDDWGRTALHYAAASDMDRNKTILGNAHDNSEELERARELKEKEATLCLEFLLQNDANPSIRDKEGYNSIHYAAAYGHRQCLELLLERTNSGFEESDSGATKSPLHLAAYNGHHQALEVLLQSLVDLDIRDEKGRTALDLAAFKGHTECVEALINQGASIFVKDNVTKRTPLHASVINGHTLCLRLLLEIADNPEAVDVKDAKGQTPLMLAVAYGHIDAVSLLLEKEANVDTVDILGCTALHRGIMTGHEECVQMLLEQEVSILCKDSRGRTPLHYAAARGHATWLSELLQMALSEEDCCFKDNQGYTPLHWACYNGNENCIEVLLEQKCFRKFIGNPFTPLHCAIINDHGNCASLLLGAIDSSIVSCRDDKGRTPLHAAAFADHVECLQLLLRHSAPVNAVDNSGKTALMMAAENGQAGAVDILVNSAQADLTVKDKDLNTPLHLACSKGHEKCALLILDKIQDESLINEKNNALQTPLHVAARNGLKVVVEELLAKGACVLAVDENASRSNGPRSTPGTAVQKEE
# B3: Keratin-associated protein 3-2 (Homo sapiens), Q9BYR7 (parent)
# chain: MDCCASRSCSVPTGPATTICSSDKSCRCGVCLPSTCPHTVWLLEPICCDNCPPPCHIPQPCVPTCFLLNSCQPTPGLETLNLTTFTQPCCEPCLPRGC
# B4: Leucine-rich repeat and calponin homology domain-containing protein 1 (Homo sapiens), Q9Y2L9 (parent)
# chain: MATPGSEPQPFVPALSVATLHPLHHPHHHHHHHQHHGGTGAPGGAGGGGGGSGGFNLPLNRGLERALEEAANSGGLNLSARKLKEFPRTAAPGHDLSDTVQADLSKNRLVEVPMELCHFVSLEILNLYHNCIRVIPEAIVNLQMLTYLNLSRNQLSALPACLCGLPLKVLIASNNKLGSLPEEIGQLKQLMELDVSCNEITALPQQIGQLKSLRELNVRRNYLKVLPQELVDLSLVKFDFSCNKVLVIPICFREMKQLQVLLLENNPLQSPPAQICTKGKVHIFKYLSIQACQIKTADSLYLHTMERPHLHQHVEDGKKDSDSGVGSDNGDKRLSATEPSDEDTVSLNVPMSNIMEEEQIIKEDSCHRLSPVKGEFHQEFQPEPSLLGDSTNSGEERDQFTDRADGLHSEFMNYKARAEDCEELLRIEEDVHWQTEGIISSSKDQDMDIAMIEQLREAVDLLQDPNGLSTDITERSVLNLYPMGSAEALELQDSALNGQIQLETSPVCEVQSDLTLQSNGSQYSPNEIRENSPAVSPTTNSTAPFGLKPRSVFLRPQRNLESIDPQFTIRRKMEQMREEKELVEQLRESIEMRLKVSLHEDLGAALMDGVVLCHLVNHIRPRSVASIHVPSPAVPKLSMAKCRRNVENFLEACRKLGVPEADLCSPCDILQLDFRHIRKTVDTLLALGEKAPPPTSALRSRDLIGFCLVHILFIVLVYITYHWNALSA
# B5: Zinc finger protein Aiolos (Homo sapiens), Q9UKT9 (parent)
# chain: MEDIQTNAELKSTQEQSVPAESAAVLNDYSLTKSHEMENVDSGEGPANEDEDIGDDSMKVKDEYSERDENVLKSEPMGNAEEPEIPYSYSREYNEYENIKLERHVVSFDSSRPTSGKMNCDVCGLSCISFNVLMVHKRSHTGERPFQCNQCGASFTQKGNLLRHIKLHTGEKPFKCHLCNYACQRRDALTGHLRTHSVEKPYKCEFCGRSYKQRSSLEEHKERCRTFLQSTDPGDTASAEARHIKAEMGSERALVLDRLASNVAKRKSSMPQKFIGEKRHCFDVNYNSSYMYEKESELIQTRMMDQAINNAISYLGAEALRPLVQTPPAPTSEMVPVISSMYPIALTRAEMSNGAPQELEKKSIHLPEKSVPSERGLSPNNSGHDSTDTDSNHEERQNHIYQQNHMVLSRARNGMPLLKEVPRSYELLKPPPICPRDSVKVINKEGEVMDVYRCDHCRVLFLDYVMFTIHMGCHGFRDPFECNMCGYRSHDRYEFSSHIARGEHRALLK
# partner: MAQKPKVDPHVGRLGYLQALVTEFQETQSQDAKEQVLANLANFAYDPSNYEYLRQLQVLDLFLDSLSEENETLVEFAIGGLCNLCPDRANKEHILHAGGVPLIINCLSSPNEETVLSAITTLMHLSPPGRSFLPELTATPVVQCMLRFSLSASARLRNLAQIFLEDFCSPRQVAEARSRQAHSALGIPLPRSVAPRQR
# Variants of: B1
# Conditions: with pf21a_human PHF21A
row,effect of a mutation on the interaction,Variant
1,with no effect,R489W
2,with no effect,R563Q

# Variants of: B2
# Conditions: with wwp2_human WWP2, O00308
# Chain of wwp2_human WWP2, O00308 (O00308 whole entry): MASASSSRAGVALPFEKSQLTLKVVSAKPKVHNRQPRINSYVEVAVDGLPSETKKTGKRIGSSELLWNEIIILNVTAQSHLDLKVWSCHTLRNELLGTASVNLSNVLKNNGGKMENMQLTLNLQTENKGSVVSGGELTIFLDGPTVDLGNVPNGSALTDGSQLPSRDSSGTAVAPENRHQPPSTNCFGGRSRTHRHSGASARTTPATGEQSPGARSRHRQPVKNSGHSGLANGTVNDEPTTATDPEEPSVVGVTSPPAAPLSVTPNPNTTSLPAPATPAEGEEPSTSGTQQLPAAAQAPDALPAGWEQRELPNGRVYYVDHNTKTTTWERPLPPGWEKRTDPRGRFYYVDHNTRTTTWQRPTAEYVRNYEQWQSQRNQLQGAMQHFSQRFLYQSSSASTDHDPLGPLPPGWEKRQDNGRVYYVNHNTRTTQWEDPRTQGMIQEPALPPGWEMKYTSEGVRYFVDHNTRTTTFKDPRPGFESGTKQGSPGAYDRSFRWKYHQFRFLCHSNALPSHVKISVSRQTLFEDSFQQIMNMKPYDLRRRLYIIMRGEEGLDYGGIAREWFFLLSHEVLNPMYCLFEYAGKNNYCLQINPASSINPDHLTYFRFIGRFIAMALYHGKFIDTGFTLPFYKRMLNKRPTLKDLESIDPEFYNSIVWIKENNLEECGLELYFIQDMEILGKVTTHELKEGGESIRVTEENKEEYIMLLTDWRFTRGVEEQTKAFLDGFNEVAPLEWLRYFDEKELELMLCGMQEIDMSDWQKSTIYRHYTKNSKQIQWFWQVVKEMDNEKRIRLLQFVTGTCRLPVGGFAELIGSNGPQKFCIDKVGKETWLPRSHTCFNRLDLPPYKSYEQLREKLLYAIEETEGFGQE
row,effect of a mutation on the interaction,Variant
1,disrupting interaction strength,R80W

# Variants of: B3
# Conditions: with yipf3_human YIPF3, Q9GZM5
# Chain of yipf3_human YIPF3, Q9GZM5 (Q9GZM5 whole entry): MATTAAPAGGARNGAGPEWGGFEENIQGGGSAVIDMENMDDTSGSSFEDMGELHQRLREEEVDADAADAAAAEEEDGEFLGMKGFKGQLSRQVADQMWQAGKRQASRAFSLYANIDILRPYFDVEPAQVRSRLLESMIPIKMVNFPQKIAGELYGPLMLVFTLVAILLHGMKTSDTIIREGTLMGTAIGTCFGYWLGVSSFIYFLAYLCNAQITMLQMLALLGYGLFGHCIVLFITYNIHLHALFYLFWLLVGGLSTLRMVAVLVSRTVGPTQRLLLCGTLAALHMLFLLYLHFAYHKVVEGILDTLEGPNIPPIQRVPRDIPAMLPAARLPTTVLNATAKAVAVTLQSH
row,effect of a mutation on the interaction,Variant
1,with no effect,R27C
2,with no effect,S8G

# Variants of: B3
# Conditions: with hxa1_human HOXA1, P49639
# Chain of hxa1_human HOXA1, P49639 (P49639 whole entry): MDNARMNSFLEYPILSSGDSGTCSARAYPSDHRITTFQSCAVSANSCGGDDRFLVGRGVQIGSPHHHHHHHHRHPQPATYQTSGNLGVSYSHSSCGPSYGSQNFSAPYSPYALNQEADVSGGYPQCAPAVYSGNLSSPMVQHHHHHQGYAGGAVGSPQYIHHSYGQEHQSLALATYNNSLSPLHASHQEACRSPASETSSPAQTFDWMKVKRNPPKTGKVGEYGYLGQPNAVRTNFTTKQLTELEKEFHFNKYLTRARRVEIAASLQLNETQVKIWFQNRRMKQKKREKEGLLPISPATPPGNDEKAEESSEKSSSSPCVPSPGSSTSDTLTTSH
row,effect of a mutation on the interaction,Variant
1,with no effect,R27C
2,with no effect,S8G

# Variants of: B3
# Conditions: with otx1_human OTX1, P32242
# Chain of otx1_human OTX1, P32242 (P32242 whole entry): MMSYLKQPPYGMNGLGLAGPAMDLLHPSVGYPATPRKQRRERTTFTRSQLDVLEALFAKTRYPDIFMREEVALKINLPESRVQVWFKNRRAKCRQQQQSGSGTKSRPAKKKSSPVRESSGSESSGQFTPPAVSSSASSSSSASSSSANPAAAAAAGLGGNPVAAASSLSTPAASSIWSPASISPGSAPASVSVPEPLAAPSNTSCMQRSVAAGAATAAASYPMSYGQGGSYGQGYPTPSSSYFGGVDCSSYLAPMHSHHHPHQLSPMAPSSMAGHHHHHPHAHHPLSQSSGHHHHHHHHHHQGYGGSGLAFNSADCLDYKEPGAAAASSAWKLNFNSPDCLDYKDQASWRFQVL
row,effect of a mutation on the interaction,Variant
1,with no effect,R27C
2,with no effect,S8G

# Variants of: B4
# Conditions: with dock8_human DOCK8, Q8NF50
# Chain of dock8_human DOCK8, Q8NF50 (Q8NF50 whole entry): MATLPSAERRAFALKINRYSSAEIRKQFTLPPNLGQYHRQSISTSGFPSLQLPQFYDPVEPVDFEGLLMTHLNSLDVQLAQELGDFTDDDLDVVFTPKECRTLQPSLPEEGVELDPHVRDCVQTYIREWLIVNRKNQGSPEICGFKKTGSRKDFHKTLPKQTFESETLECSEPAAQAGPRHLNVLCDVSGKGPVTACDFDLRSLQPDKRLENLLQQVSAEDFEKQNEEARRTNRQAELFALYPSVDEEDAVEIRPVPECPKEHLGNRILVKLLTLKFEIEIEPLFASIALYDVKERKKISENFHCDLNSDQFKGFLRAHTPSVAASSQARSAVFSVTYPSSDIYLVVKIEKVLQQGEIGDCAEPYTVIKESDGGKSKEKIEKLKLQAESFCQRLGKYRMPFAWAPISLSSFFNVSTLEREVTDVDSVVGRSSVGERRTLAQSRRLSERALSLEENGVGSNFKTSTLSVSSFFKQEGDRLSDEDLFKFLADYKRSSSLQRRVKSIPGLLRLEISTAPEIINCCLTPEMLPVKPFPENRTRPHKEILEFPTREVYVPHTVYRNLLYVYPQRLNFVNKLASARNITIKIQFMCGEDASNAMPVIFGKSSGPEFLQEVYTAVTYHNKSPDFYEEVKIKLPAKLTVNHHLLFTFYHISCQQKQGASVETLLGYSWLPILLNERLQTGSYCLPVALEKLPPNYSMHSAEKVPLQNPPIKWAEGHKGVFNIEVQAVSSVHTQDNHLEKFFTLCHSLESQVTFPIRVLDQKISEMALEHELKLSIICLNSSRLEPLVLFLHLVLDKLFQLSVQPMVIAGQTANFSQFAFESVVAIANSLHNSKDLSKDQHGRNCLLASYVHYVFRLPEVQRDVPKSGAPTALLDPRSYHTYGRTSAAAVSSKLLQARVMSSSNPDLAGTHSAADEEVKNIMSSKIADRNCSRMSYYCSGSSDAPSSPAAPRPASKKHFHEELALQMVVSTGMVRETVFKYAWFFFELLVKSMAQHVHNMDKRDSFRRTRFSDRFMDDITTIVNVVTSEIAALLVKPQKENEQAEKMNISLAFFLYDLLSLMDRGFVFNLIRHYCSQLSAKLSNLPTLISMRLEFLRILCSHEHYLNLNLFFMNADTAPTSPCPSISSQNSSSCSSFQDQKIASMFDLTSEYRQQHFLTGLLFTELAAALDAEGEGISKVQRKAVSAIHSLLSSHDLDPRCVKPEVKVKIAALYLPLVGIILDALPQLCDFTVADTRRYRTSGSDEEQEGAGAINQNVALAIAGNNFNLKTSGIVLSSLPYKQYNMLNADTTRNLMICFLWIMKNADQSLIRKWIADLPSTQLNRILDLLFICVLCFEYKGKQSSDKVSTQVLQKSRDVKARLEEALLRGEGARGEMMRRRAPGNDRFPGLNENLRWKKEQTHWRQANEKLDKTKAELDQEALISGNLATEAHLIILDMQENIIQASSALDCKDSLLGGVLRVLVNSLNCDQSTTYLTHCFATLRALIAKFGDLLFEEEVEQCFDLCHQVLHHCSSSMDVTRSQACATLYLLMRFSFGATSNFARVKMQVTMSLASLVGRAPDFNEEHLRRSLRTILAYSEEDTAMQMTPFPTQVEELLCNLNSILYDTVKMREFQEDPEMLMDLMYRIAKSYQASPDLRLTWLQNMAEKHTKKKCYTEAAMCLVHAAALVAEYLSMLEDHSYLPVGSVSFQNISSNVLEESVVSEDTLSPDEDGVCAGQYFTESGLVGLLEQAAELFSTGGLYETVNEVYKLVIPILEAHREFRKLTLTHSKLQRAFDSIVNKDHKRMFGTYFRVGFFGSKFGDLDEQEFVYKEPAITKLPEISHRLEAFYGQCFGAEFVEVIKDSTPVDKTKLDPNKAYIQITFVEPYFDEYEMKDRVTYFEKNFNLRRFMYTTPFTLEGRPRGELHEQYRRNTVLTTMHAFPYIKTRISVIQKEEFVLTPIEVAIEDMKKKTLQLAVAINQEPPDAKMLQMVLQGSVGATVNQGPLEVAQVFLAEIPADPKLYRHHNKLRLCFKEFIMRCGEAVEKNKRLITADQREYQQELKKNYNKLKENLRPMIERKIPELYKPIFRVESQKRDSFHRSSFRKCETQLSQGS
row,effect of a mutation on the interaction,Variant
1,with no effect,A486S

# Variants of: B5
# Conditions: with armc7_human ARMC7, Q9H6L4
row,effect of a mutation on the interaction,Variant
1,with no effect,N119D
2,with no effect,A24V
